What all share (experiment): fluorescence polarisation
Assay [1] deals with mbGIPC PDZ domain (Monosiga brevicollis GIPC homologue, original construct) (Monosiga brevicollis).
For assay [2] the target is unchanged. This is another data set of the same source.
The target in assay [3] is mbSHANK1 PDZ domain (Monosiga brevicollis SHANK1 homologue) (Monosiga brevicollis).

Like-named read-outs stand apart in the source and are kept apart here. Ends that are not written are not given here.

For GAIP C-terminal peptide, the Ki in assay [1] was found to be 0.14 µM. In other words, the sub-micromolar range.

“tyrosinase-related protein 1 (TYRP1) C-terminal peptide”: the fold worse affinity than GAIP in assay [1] is 10 fold.

Consider “β-1 adrenergic receptor (B1AR) C-terminal peptide”, for which, in assay [1], the fold worse affinity than GAIP is 20 fold.

As to VEPKKSFDEI [decameric peptide matching the final 10 residues of the mbGIPC_(SFDEI) construct], the Ki in assay [2] is greater than 1000 µM.

With NDPAWDETNL (also: fluorescent label, kind and position not given here) [fluorescent β-PIX peptide], in assay [3], the fold higher affinity than the GIRK3 peptide stood at 62 fold.

Source of the values: article doi:10.1101/2020.05.28.121053.
